Experimental data: paper PMC9813921 (Cell reports, 2022)

Experiments:
GFP-RRP1B_(RAxA) (human) = GFP-RRP1B_(RAxA) (human) (UniProt Q14684); experiment: co-IP
[1] = molecular target: GFP-RRP1B_(S702D) (human) (UniProt Q14684); experiment: co-IP
[2] = molecular target: mCherry-LacRepressor-NLS-PP1γ (UniProt P36873); experiment: two-hybrid
[3] = molecular target: His6-tagged PP1α_(7–330) Q20R (UniProt P62136); experiment: SPR
His6-tagged PP1γ_(7–323) = His6-tagged PP1γ_(7–323) (UniProt P36873 7-323); experiment: ITC
His6-tagged PP1α_(7–330) = His6-tagged PP1α_(7–330) (UniProt P62136 7-330); experiment: ITC
His6-tagged PP1γ_(7–308) = His6-tagged PP1γ_(7–308) (UniProt P36873 7-308); experiment: ITC
[4] = molecular target: His6-tagged PP1α_(7–330) Q20R (UniProt P62136 7-330, Q20R); experiment: SPR
Chain of His6-tagged PP1α_(7–330) Q20R (UniProt P62136 7-330, Q20R) (P62136 7-330 Q20R): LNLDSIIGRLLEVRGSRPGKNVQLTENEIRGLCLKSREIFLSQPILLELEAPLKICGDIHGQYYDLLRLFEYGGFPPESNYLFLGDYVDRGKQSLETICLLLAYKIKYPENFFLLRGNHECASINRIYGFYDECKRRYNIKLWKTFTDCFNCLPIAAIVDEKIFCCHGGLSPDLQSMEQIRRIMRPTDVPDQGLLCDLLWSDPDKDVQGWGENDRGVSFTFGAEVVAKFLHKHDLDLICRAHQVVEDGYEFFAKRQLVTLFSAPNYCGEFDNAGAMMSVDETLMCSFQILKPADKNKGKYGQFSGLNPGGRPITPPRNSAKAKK

Chain of His6-tagged PP1α_(7–330) Q20R (UniProt P62136) (P62136 7-330 Q20R): as above
Chain of His6-tagged PP1γ_(7–308) (P36873 7-308): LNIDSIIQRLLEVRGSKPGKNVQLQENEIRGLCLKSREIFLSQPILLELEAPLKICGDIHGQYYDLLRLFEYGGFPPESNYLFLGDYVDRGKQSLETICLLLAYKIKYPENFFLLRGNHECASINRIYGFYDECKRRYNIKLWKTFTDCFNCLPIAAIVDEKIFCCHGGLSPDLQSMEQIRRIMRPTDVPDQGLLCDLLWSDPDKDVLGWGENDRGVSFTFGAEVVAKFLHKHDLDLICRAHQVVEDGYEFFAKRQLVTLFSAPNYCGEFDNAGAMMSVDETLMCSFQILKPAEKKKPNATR
Chain of mCherry-LacRepressor-NLS-PP1γ (P36873 whole entry): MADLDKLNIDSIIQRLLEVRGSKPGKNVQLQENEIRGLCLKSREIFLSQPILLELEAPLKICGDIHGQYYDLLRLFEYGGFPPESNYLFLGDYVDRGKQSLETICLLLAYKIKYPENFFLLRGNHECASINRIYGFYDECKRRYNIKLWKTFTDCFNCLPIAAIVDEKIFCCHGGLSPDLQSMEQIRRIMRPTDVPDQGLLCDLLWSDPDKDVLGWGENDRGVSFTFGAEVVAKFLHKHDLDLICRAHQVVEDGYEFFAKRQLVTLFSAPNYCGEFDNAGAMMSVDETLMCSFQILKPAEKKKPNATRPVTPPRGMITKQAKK
Chain of His6-tagged PP1γ_(7–323) (P36873 7-323): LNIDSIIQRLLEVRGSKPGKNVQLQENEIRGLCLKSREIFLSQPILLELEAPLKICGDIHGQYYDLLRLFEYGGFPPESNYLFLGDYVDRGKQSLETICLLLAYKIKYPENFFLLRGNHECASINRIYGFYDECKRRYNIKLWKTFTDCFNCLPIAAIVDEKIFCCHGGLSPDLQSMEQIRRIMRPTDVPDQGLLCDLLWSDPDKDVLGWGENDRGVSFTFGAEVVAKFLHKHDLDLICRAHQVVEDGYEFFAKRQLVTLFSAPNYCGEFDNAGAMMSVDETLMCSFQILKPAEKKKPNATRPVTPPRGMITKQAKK
Chain of His6-tagged PP1α_(7–330) (P62136 7-330): as the sequence (P62136 7-330 Q20R) above, with R14Q counted along it

Molecule “PP1γ, endogenous (from UniProt P36873 1-323) (enzyme)” has a PP1γ co-precipitated, percent of WT GFP-RRP1B (GFP-RRP1B_(RAxA) (human)) of 2.1% and a PP1γ co-precipitated, percent of WT GFP-RRP1B [1] of 4.6%.

In the case of “GFP-RRP1B_(S702D) (from UniProt Q14684) (natural protein)”, the percent of cells with accumulation at the gene locus [2] is reported as 7%.

With “RRP1B_(682–727) F715A (from UniProt Q14684) (domain or fragment)” the Kd [3] was 157 nM.

Work on “RRP1B_(682–727) S702D (from UniProt Q14684) (domain or fragment)” yielded a Kd [3] of 329 nM.

B1: RRP1B_(657–758) (domain or fragment)
chain: RRAKSSTATHPPGPAVQLNKTPSSSKKVTFGLNRNMTAEFKKTDKSILVSPTGPSRVAFDPEQKPLHGVLKTPTSSPASSPLVAKKPLTTTPRRRPRAMDFF
Molecule B1 has a Kd (His6-tagged PP1γ_(7–323)) of 40 nM, a Kd (His6-tagged PP1α_(7–330)) of 888 nM and a Kd (His6-tagged PP1γ_(7–308)) of 17.6 nM.

KKVTFGLNRNMTAEFKKTDKSILVSPTGPSRVAFDPEQKPLH (domain or fragment) [RRP1B_(682–723)] was tested, and the Kd [4] was 114 nM.

B2: RRP1B_(677–736) (domain or fragment)
chain: TPSSSKKVTFGLNRNMTAEFKKTDKSILVSPTGPSRVAFDPEQKPLHGVLKTPTSSPASS
B2 showed a Kd (His6-tagged PP1γ_(7–308)) of 22.6 nM.

KKVTFGLNRNMTAEFKKTDKSILVSPTGPSRVAFDPEQKPLHGVLK (domain or fragment) [RRP1B_(682–727)] showed a Kd [4] of 22.5 nM.
